Laboratory results from patent US20240247080A1, “GLP1/GIP/NPY2 RECEPTOR TRIPLE AGONISTS” (Boehringer Ingelheim International GmbH, priority 2022, published 2024).
Where a chain is given by its changes, count along the chain named. Values belong to the binder of their own block, whether it stands above or below them. Starred links: 1 amine or outer side, 2 acyl side, 3 side chain; linkers in the order of their positions; H or OH if unused. Non-standard residues stand in square brackets, D forms with d. Groups on a side chain read outwards from the residue. No end group written: not given here. *: point of attachment. C18 diacid = O=C(O)CCCCCCCCCCCCCCCCC(=O)*; γGlu = O=C(O)[C@H](CCC(=O)[*:2])N[*:1]; Aib = CC(C)(N)C(=O)O

How the values were obtained:
Assay in all cases: cell-based or functional assay
human GLP-1 receptor = human GLP-1 receptor (human, UniProt P43220 24-463)
human GIP receptor = target: T1, human GIP receptor (human, UniProt P48546 22-466)
T1 sequence (looked up): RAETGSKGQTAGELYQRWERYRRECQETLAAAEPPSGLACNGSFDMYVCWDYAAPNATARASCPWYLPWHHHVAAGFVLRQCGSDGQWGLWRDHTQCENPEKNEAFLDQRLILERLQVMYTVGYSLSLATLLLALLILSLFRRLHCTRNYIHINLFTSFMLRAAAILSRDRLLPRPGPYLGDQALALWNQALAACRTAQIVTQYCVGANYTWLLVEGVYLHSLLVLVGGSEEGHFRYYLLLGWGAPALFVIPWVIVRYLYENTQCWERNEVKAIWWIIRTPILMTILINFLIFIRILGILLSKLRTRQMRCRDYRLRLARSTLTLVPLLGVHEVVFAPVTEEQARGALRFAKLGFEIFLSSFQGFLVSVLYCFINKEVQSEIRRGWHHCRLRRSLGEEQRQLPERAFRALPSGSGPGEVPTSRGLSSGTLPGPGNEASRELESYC

[1] = target: T2, human neuropeptide Y2 (NPY2) receptor (human, UniProt P49146 1-381)
T2 sequence (looked up): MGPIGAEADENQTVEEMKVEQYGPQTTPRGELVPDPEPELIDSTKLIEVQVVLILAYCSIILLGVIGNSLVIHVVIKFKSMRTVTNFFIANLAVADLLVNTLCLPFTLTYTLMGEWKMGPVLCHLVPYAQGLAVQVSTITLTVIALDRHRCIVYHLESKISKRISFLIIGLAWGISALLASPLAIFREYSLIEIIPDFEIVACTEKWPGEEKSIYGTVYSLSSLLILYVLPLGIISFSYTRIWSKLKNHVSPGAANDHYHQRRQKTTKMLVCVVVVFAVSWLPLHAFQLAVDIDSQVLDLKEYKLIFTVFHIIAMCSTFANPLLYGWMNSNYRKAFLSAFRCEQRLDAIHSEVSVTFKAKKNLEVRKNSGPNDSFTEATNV

GLP-1 receptor = GLP-1 receptor (human (printed as hGLP1R), UniProt P43220 24-463)
GIP receptor = target: T3, GIP receptor (human (printed as hGIPR), UniProt P48546 22-466)
T3 sequence (looked up): T1 sequence (looked up)

NPY2 receptor = target: T4, NPY2 receptor (human (printed as hNPY2R), UniProt P49146 1-381)
T4 sequence (looked up): T2 sequence (looked up)

EC50, CreLuc assay, 0.5% hP (human GLP-1 receptor): 0.45 nM | EC50, CreLuc assay, 100% hP (human GLP-1 receptor): 14.4 nM | EC50, CreLuc assay, 0.5% hP (human GIP receptor): 0.53 nM | EC50, CreLuc assay, 100% hP (human GIP receptor): 6.56 nM | EC50, CreLuc assay, 0.5% hP [1]: 4.45 nM | EC50, CreLuc assay, 100% hP [1]: 23 nM
B1: Compound 3 (peptide)
peptide: YXEGTFTSDYSIXLEKQAQXAFVQWLIKGGQRSYASLRHYYNWLTRQRY
modifications: Aib at 2, 13, 20; K28 side chain: C20DA-gGlu-gGlu-gGlu-gGlu-gGlu-gGlu-eLys; C-terminal NH2

EC50 hGLP1R 0.5% hP (CreLuc) (GLP-1 receptor): 0.34 nM | EC50 hGLP1R 100% hP (CreLuc) (GLP-1 receptor): 7.31 nM | EC50 hGIPR 0.5% hP (CreLuc) (GIP receptor): 0.46 nM | EC50 hGIPR 100% hP (CreLuc) (GIP receptor): 1.23 nM | EC50 hNPY2R 0.5% hP (CreLuc) (NPY2 receptor): 17.3 nM | EC50 hNPY2R 100% hP (CreLuc) (NPY2 receptor): 40.9 nM
B2: Compound 255 (peptide)
peptide: B1 peptide with A21E, Q24E, Q31P, R32S, S33E, Y34G
modifications: Aib at 2, 13, 20; K28 side chain carries C18DA-gGlu-gGlu-gGlu-gGlu-gGlu-gGlu-eLys; C-terminal amide

EC50, CreLuc assay, 0.5% hP (human GLP-1 receptor): 0.5 nM | EC50, CreLuc assay, 100% hP (human GLP-1 receptor): 10.2 nM | EC50, CreLuc assay, 0.5% hP (human GIP receptor): 0.61 nM | EC50, CreLuc assay, 100% hP (human GIP receptor): 6.5 nM | EC50, CreLuc assay, 0.5% hP [1]: 9.41 nM | EC50, CreLuc assay, 100% hP [1]: 19.3 nM
B3: Compound 19 (peptide)
peptide: B1 peptide with Q31P, R32S, S33Y, A35V
modifications: Aib at 2, 13, 20; K28 side chain: C20DA-gGlu-gGlu-gGlu-gGlu-gGlu-gGlu-eLys; C-terminal NH2

EC50 hGLP1R 0.5% hP (CreLuc) (GLP-1 receptor): 0.08 nM | EC50 hGLP1R 100% hP (CreLuc) (GLP-1 receptor): 2.48 nM | EC50 hGIPR 0.5% hP (CreLuc) (GIP receptor): 0.14 nM | EC50 hGIPR 100% hP (CreLuc) (GIP receptor): 1.48 nM | EC50 hNPY2R 0.5% hP (CreLuc) (NPY2 receptor): 16.9 nM | EC50 hNPY2R 100% hP (CreLuc) (NPY2 receptor): 96.3 nM
B4: Compound 257 (peptide)
peptide: B1 peptide with Q31P, R32S, S33E, Y34G
modifications: Aib at 2, 13, 20; K28 side chain carries C18DA-E-E-E-E-E (SEQ ID NO: 636); C-terminal amide

EC50 hGLP1R 0.5% hP (CreLuc) (GLP-1 receptor): 0.08 nM | EC50 hGLP1R 100% hP (CreLuc) (GLP-1 receptor): 2.03 nM | EC50 hGIPR 0.5% hP (CreLuc) (GIP receptor): 0.2 nM | EC50 hGIPR 100% hP (CreLuc) (GIP receptor): 1.25 nM | EC50 hNPY2R 0.5% hP (CreLuc) (NPY2 receptor): 12.2 nM | EC50 hNPY2R 100% hP (CreLuc) (NPY2 receptor): 37.4 nM
B5: Compound 250 (peptide)
peptide: B1 peptide with Q31P, R32S, S33E, Y34G
modifications: Aib at 2, 13, 20; K28 side chain carries C18DA-gGlu-gGlu-gGlu-gGlu-gGlu; C-terminal amide

EC50 hGLP1R 0.5% hP (CreLuc) (GLP-1 receptor): 0.08 nM | EC50 hGLP1R 100% hP (CreLuc) (GLP-1 receptor): 0.74 nM | EC50 hGIPR 0.5% hP (CreLuc) (GIP receptor): 0.24 nM | EC50 hGIPR 100% hP (CreLuc) (GIP receptor): 0.64 nM | EC50 hNPY2R 0.5% hP (CreLuc) (NPY2 receptor): 13.4 nM | EC50 hNPY2R 100% hP (CreLuc) (NPY2 receptor): 39.3 nM
B6: Compound 253 (peptide)
peptide: B1 peptide with Q24E, Q31P, R32S, Y34G
modifications: Aib at 2, 13, 20; K28 side chain carries C18DA-gGlu-gGlu-gGlu-gGlu-gGlu; C-terminal amide

EC50, CreLuc assay, 0.5% hP (human GLP-1 receptor): 0.11 nM | EC50, CreLuc assay, 100% hP (human GLP-1 receptor): 1.66 nM | EC50, CreLuc assay, 0.5% hP (human GIP receptor): 0.14 nM | EC50, CreLuc assay, 100% hP (human GIP receptor): 0.87 nM | EC50, CreLuc assay, 0.5% hP [1]: > 99.9 nM | EC50, CreLuc assay, 100% hP [1]: > 999 nM
B7: Compound 21 (peptide)
peptide: B1 peptide with Q24E, Q31P, R32S, Y34G
modifications: Aib at 2, 13, 20; DHis 39; DArg 46; DTyr 49; K28 side chain: C20DA-gGlu-gGlu-gGlu-gGlu-gGlu-gGlu-eLys; C-terminal NH2

EC50, CreLuc assay, 0.5% hP (human GLP-1 receptor): 0.45 nM | EC50, CreLuc assay, 100% hP (human GLP-1 receptor): 15.9 nM | EC50, CreLuc assay, 0.5% hP (human GIP receptor): 0.54 nM | EC50, CreLuc assay, 100% hP (human GIP receptor): 6.62 nM | EC50, CreLuc assay, 0.5% hP [1]: 8.06 nM | EC50, CreLuc assay, 100% hP [1]: 21.3 nM
B8: Compound 22 (peptide)
peptide: B1 peptide with R32S
modifications: Aib at 2, 13, 20; K28 side chain: C20DA-gGlu-gGlu-gGlu-gGlu-gGlu-Glu-eLys; C-terminal NH2

EC50 hGLP1R 0.5% hP (CreLuc) (GLP-1 receptor): 0.1 nM | EC50 hGLP1R 100% hP (CreLuc) (GLP-1 receptor): 2.59 nM | EC50 hGIPR 0.5% hP (CreLuc) (GIP receptor): 0.29 nM | EC50 hGIPR 100% hP (CreLuc) (GIP receptor): 1.25 nM | EC50 hNPY2R 0.5% hP (CreLuc) (NPY2 receptor): 14.5 nM | EC50 hNPY2R 100% hP (CreLuc) (NPY2 receptor): 33.5 nM
Binder: Y[Aib]EGTFTSDYSI[Aib]LEKQAQ[Aib]AFVQWLIK([γGlu-γGlu-γGlu-γGlu-γGlu-γGlu-C18 diacid])GGPSEGASLRHYYNWLTRQRY-NH2 (also: TFA salt) [Compound 252]
